Measured values from a protein production outcome set (Wang et al. 2014).

Assay: label from the status in PepcDB records

With “MLKFRSHTKELLDGDAIPEKDLFQNLKELDTINKLLGGYKISLSAIDELIKNAAAYKLVDIGCGGGDTLKYMYHWAKRTDKNLSLVGIDIKPVCIEYAKTNTADLPIQYICDDYKQAFNHIEKIDFIHACLFCHHLSEEQLVELIQFALINKTTLVVNDLERNPIAYYSIKWLTAIFSHSYLVKNDAPLSVARGFKKKEWEALLKKAGAATYSVKNKWAFRHQVIVYGNQ” as the sequence, how does the protein production read?
The protein production was “failed”.

For “MLKHCGEFHIALKHLQLALLYTYPSTFSELQVKFQIAHLYEVQNKHKAAKDGYEFLLNEKNISLELKADVYRQLGWMYHCVECLGEKKEREANALNFLQKSIEADPKSGQSLYLLGRCYAGINKVHDAFLAYRNSVEKSEGNADTWCSIGVLYQQQNQPTDALQAYICAVQLDKDHKAAWTNLGILYESCGQLRDAYACYLNATKQISFQKSSLIRKKQAIRMKKDTIGLSKGLSQRITFLEGQLSQAPLPSITSKRRQLCSIEEAWNLPISLEMNSRQQQTAQMLPRQVTKQSPVQGPPPPYPHSQLSQSPIPSKRIKEDGTSQQEVTQNNSQTSAQNLINISESLNQRNFNAMPESNKSSEQSVLDTFDDISNDIYKQNESIKLERLSQDALSNNEDSRHDFIGGDNADISTTFKIQMDSKQLMVAVKLLPIDEPPVHCTILQVNAPPPSPPDCPPQKLTRDQLLPPTPSVHLENKKHAFSPQLQEFCLKHPIAVVRGLAGVLKLDLGLFSTKTLVEANPDHSVEVRTQVHQSPDENWDTSQGKRVWACISHRSHTTIAKYAQYQASSFQDSLKLILPQDESDKGFPGSQAMSDSDSKDSVSNSNIVLKRKKHKINSKMLRFGTNVDLSDEKKWKPQLTELQKLPAFARVISAANMLSHVGHVILGMNTVQLYMKVPGSRTPGHQENNNFCSININIGPGDCEWFAVPDAYWGGVHNLCEKNNISYLHGSWWPVLEDLYKENIPVYRFIQKPGDLVWVNAGCVHWVQSIGWCNNIAWNVGPLTARQYSLAIERYEWNKVQAFKSIVPMVHLSWNLARNIKVSDTKLFELIKMCLLQTLKNVLHIQEYVKSKGVEIRFNGRGKNEASHYCGQCEVEVFNVLFIKEQEKRHVVHCLSCALKLSPSLQGIVCLEEYRLSELQRVYDSFTLHRTQGLAYTQ”, which protein production is on record?
Its protein production is “failed”.

With “MLKIRCQACSTILEASYKISYNAQDMKYKNLPVYEQKDRILEMLEHNQVIVVESPTGSGKTTQLPVILHEAGYSRSGMIGVTQPRRIAALSVSEFISKQLKEPMPGLVGYKMRFEDKTSNDTKIKIMTDGILLQELKLDPWLSKYSVILVDEAHERSLNIDFILGLLKRIITERKDFKVIISSATINTDLFSMYFDGCPVIKIDAITYPVTLIFDPPAVKASTDTQEAETALMDKIASIVGRILSEGRSGAILVFLPGERAIKDCIERLSKEPWYRKLFILPLYGRLSKEEQERVFKSPPFGKKKIVISTNIAETSITINDIAAVIDSGLAKLNFYNPFTFTSSLDETLISRASCNQRRGRAGRTQEGVCYRLYTRKDFETRQLYTLEEIYRTDLSEVVMRMAELGILDFENFDFISPPGKKGIIGAIDTLNMLDALESDRSLSSIGKMMCLFPLAPRQSRIIVEAITRYPDLVEEVLIAAAFLSARSPVIFPEGEEIEARKAHALFDEPLGDFASFLKVFRMYSQALDKERFCKIHYLDDRVMAEIANIKEQLELIVSDMGVPILSGGKMEHYLTAIAKGMIQFVCSAQGRDSYRSLTTEKIFIHPGSCMYKEKEQFIVAGEIVRTSRMYAMSVSPLSKKIIEEVAPALLERKDKRAKKEKDEHRADQKEEKKKPEEESVLIEGTRYLIKKIKGKKHLILPWKEFKLTAEAVFKKYSEENQNGALEQLKGLRGKIEINKSELLSGEKMDLILNVVNNFNIEQIEKTEDEKHFDRNKNYFIEEDLEALVNSLNLLFRTTIAKKTTKQLGFITLFCDGTGHFWFKTSRGFHTALHESLVSLQSLIDLAGENFNEDQKIIVRTIYGKMNKMI” as the sequence, how does the protein production read?
Its protein production is “failed”.

For “MLKKEYLKNPYLVLFAMIVLAYVFSVFCRFYWVWWASEFNEYFFNNQLMIISNDGYAFAEGARDMIAGFHQPNDLSYYGSSLSTLTYWLYKITPFSFESIILYMSTFLSSLVVIPIILLANEYKRPLMGFVAALLASVANSYYNRTMSGYYDTDMLVIVLPMFILFFMVRMILKKDFFSLIALPLFIGIYLWWYPSSYTLNVALIGLFLIYTLIFHRKEKIFYIAVILSSLTLSNIAWFYQSAIIVILFALFALEQKRLNFMIIGILGSATLIFLILSGGVDPILYQLKFYIFRSDESANLTQGFMYFNVNQTIQEVENVDFSEFMRRISGSEIVFLFSLFGFVWLLRKHKSMIMALPILVLGFLALKGGLRFTIYSVPVMALGFGFLLSEFKAILVKKYSQLTSNVCIVFATILTLAPVFIHIYNYKAPTVFSQNEASLLNQLKNIANREDYVVTWWDYGYPVRYYSDVKTLVDGGKHLGKDNFFPSFSLSKDEQAAANMARLSVEYTEKSFYAPQNDILKSDILQAMMKDYNQSNVDLFLASLSKPDFKIDTPKTRDIYLYMPARMSLIFSTVASFSFINLDTGVLDKPFTFSTAYPLDVKNGEIYLSNGVVLSDDFRSFKIGDNVVSVNSIVEINSIKQGEYKITPIDDKAQFYIFYLKDSAIPYAQFILMDKTMFNSAYVQMFFLGNYDKNLFDLVINSRDAKVFKLKI”, which protein production is on record?
The protein production was “failed”.

Which protein production does the source give for “MLKKVIGILVIIAIISVGFFQKEAWLDAIKAGGMFSVLFSMLLIAADVFFPIVPFALIAALNGAVFGTANGIWITLTGSMLGTILLFFLARYSFRDWARKKVQAYPAIQSYEASFNKNAFTAVLLGRLIPVIPSLVMNVICGLSQVRWHVFFFASLIGKIPNIVVVTIAGANFTSNKLLSISIYGTYILIIMLVIYKKFPHLLKVPKK” here?
Its protein production is “failed”.

With “MLKKVQEHLPRQLLPAPDAITAFCHLIANWSRSELVLALTVDQQGNRAQIITTTSTKFPNLEIIAPWRDLVQGTVIDVLPFLKLPSIFFCLLSKVERIVYIPCGEPEKWCQGLLLVNPVEEPLQQLAEQKGYIAALYRQLLIHHRQSQNSFIFEAQFQDIFDTVPLGLVLIKGDSSTAMVNSYAAQWLQLPPGSHPVQIVAEHMKQGWERCDNCDELVNLFQGLAANANFSAQGECRRGEKTFLIDTHPVRGDSRLGRVWIFSDISDMRQREQALLALAWLDPLTGAFNRRFLLSRVEAYESQAATGEALLTVMIFDIDHFKRINDTYGHDQGDVVLRTLAARAKQVLESCQDGILVRWGGEEFVLLFFVAYEDQAKAVAEELCSVVRSQPVELTDQYSLSVTISLGVTLFRGGEQVLSDSIPRADQALYEAKHGGRDRWVWA” as the sequence, how does the protein production read?
Its protein production is “failed”.

Which protein production does the source give for “MLKLFKGIYAIFLCVRECIINLFFILFLLTGFASIAFLVNGSDTNKSKEPNEKVALRLNLSGYLTDNHDDFAHRLIQSELTNDESLKASTFDVVRAIGKAAKDPNITGIVLDLSKFEGSDHSSLSFIGSELKAFKTSGKPVIAIGENYSQSQYYLASFADKIYLNKAGSINLQGLNFSSLYFKALLDKIDAVPHIFRVGTYKSAVEPFLRNDMSDEAKQNAQTLLNSIWHQFRTDIAENRMIAVDQVLPEPKSLIEKYKAVNANDAQYALNQKLVTDIGSKAEIEQALIEQFGKNEKGIYQHINYADYALNLTDRFAVNAEHKIAVINVEGEIISGKSKERSAGSETISELLRQAREDNNVDGVILRVNSPGGSVVASEIILQELQSIQQAGKPVVTSMGGLAASGGYWISATSDKIIASPNTITGSIGIFGLAMTFEKTAKHLGISEDGVATSPLAKTSSLQHLSNEHAELIQINIENGYDAFLDLVSRGRNMSKAEVDKVAQGQVWSGEDALKHGLVDQLGDFHTAYDVLTDLINQKRKAKGENEIKHFTAQWFIESDKGLFSSLLKNIGFKAKSTLAVWLGLPFVPQTQQAAELLQKFNDPQNTYLYCLTCGTIK” here?
Its protein production is “failed”.

With “MLKLNLKKSFQKDFDKLLLNGFDDSVLNEVILTLRKKEPLDPQFQDHALKGKWKPFRECHIKPDVLLVYLVKDDELILLRLGSHSELF” as the sequence, how does the protein production read?
Its protein production is “failed”.

For “MLKPVALLTPRPSPSRDPAIPDWLLAGKLEPALPRPAAVVRGALLAALDQAQARPLTLLLAPPGFGKTTLLAQWHAHLSTREQGPVAWLSLDEEDADAARFLGHLALALQNAGADHALCATVLHNRDHDPRDATALLIRALRAAPRRISVILDDYDRLGSSPVDELVLRLIEHSGGRLHLVLATRRVPNLPLARLDLHAQLSRIGSTQLALDNTEAQALLGPHVPTPVVDELRNYTEGWPVALQLARLWLQGDTQRQQEVAARFSGRSAQIAAYLAEQVVNDLDPDTRELLLRTSPLERFNAALADAVRQREDSGRLLARLEHFHGLLVPLDGEREWFRYHPLFADFLQQLLDREHPGQSVQLHQRAARWFGDHQHLAEAVRHAWRGNCGELAASYIARAGTWQLLLTHGTHEVRALLRHFDHRTIRDTPALNLTQAHLHIRLGEFSHARLLLERFRDFPAALREPLQRDYTVVVALLRDRLDEICGNPHGLTQIAAQAGALDEDDHLGRGMLLCICATTAIAQGAFAVAERYARNARDTMQRGGSDVGASQAMLSLGQSLFYRGRLSDAEACYQQALSWCARTPQLDRVLEAAAQCLLAQSHYERGHHDDAADLLHPALELLEQHDGGMDVLAAGYGTALGLERVRDHSGRSALLLLEHIEQIAHGRKLARLSELAAAWRLMLLLEHPGNAAIDVLIARTGGESGLAHTLRSPHRWHDRAAMGFALARWHRLAGRSSAALSILGQIEQACLANDNVCHLARTRARIALVLQQRGELVAALPYLYSALDHVALTQSWQAIVELGLPAKAMLRSLRQHDPQTVGGTTRALTIQALLERLSGDDDPAGDIFSERELEVLAQLARGYSNKQIARCLHLSENTVKFHLKNLYRKLDARSREGALAQALQRGLLRGSNQHADQPLQPD”, which protein production is on record?
Its protein production is “failed”.

For “MLKQEKIYLVEDDTTIVNLLKNHLGQHYQVKSVDNFRAILQEVKEFKPDLILMDITLPYFNGFYWTTEIRKSMTMPIIFISSADEEMNAVMAMNMGGDDFLSKPFSLPILDAKIAAFLRRANEFTKQGHQIEEFELTLDGVFSNLERQETIQLTPTETKILSLLIDYKGEVVTKEALLNRLWEGEEFIDQNTLSVNMTRLRKKVLSVSFDKIHTVRGVGYLIK”, which protein production is on record?
The protein production was “failed”.

For “MLKRCLSPLTLVNQVALIVLLSTAIGLAGMAVSGWLVQGVQGSAHAINKAGSLRMQSYRLLAAVPLSEKDKPLIKEMEQTAFSAELTRAAERDGQLAQLQGLQDYWRNELIPALMRAQNRETVSADVSQFVAGLDQLVSGFDRTTEMRIETVVLVHRVMAVFMALLLVFTIIWLRARLLQPWRQLLAMASAVSHRDFTQRANISGRNEMAMLGTALNNMSAELAESYAVLEQRVQEKTAGLEHKNQILSFLWQANRRLHSRAPLCERLSPVLNGLQNLTLLRDIELRVYDTDDEENHQEFTCQPDMTCDDKGCQLCPRGVLPVGDRGTTLKWRLADSHTQYGILLATLPQGRHLSHDQQQLVDTLVEQLTATLALDRHQERQQQLIVMEERATIARELHDSIAQSLSCMKMQVSCLQMQGDALPESSRELLSQIRNELNASWAQLRELLTTFRLQLTEPGLRPALEASCEEYSAKFGFPVKLDYQLPPRLVPSHQAIHLLQIAREALSNALKHSQASEVVVTVAQNDNQVKLTVQDNGCGVPENAIRSNHYGMIIMRDRAQSLRGDCRVRRRESGGTEVVVTFIPEKTFTDVQGDTHE”, which protein production is on record?
The protein production was “failed”.

With “MLKSIRYLLTIIICLFVGACQHTQDNEEPNSIRKVNLSKAASFNVQLGLGYLKQGDRPRAKKKLLTALEQQPDSADVNAALAYYFEQTKELEQAKKFYHKAITLSQNGGAQLNNYGAFLCRQGDYKNAETYFLKAVKDQNYVHTSGAYENAGLCAMAIPDHDKAILYFTKALNQDPSRKESLYELVKLQSKIGHDKEALELLQKHADLVLNDKVMLALAKDIANRTGQYTLAAEYENSFNKLEQTNNISGVNDEYNSSNG” as the sequence, how does the protein production read?
The protein production was “failed”.

With “MLKVLIQTLILGVLLGASAARAELPADYKVVLLTENFPPFNMAVDDKNFARDDGIDGISADIVREMFRRAGIGYSLSLRFPWDRLYRLTLDKPGYGLFSMTYTPERVPQFKWVGPLADTSWVLLAPAGSKIAVKNLKDAARYKLGAYKNDAVSQHLEAQGIPVINALRDQENVKKLTGGQIDLWATTDPVGRYLAKQEGVSGLQTVLRFNEAKLYLALNKDTPDEVVERLQKALEQMRQEGFVDEAVANYL” as the sequence, how does the protein production read?
Its protein production is “failed”.
